Blank lines part the entries; values can stand above or below the binder they belong to. Numbered stars: 1 amine (or outer) side, 2 acyl side, 3 side chain; on linkers, the order of the positions; unused ones are H or OH. Square brackets hold non-standard residues; d marks the D form. Ends that are not written are not given here. * marks the point of attachment. aFL = (S)-2-((R)-3-amino-2-oxopyrrolidin-1-yl)-3-phenylpropanoic acid, O=C1[C@H](N[*:1])CCN1[C@@H](Cc1ccccc1)C(=O)[*:2]; afL = (R)-2-((R)-3-amino-2-oxopyrrolidin-1-yl)-3-phenylpropanoic acid, O=C1[C@H](N[*:1])CCN1[C@H](Cc1ccccc1)C(=O)[*:2]; 779 = 2-((1S,2R,4R)-bicyclo[2.2.1]heptan-2-yl)acetic acid, O=C(C[C@H]1C[C@@H]2CC[C@H]1C2)*; ctb = (S)-2-amino-3-(tert-butylthio)propanoic acid, CC(C)(C)SC[C@@H](N[*:1])C(=O)[*:2]; Eal = rac-imidazolidine-2-carboxylic acid, O=C(C1N([*:1])CCN1[*:3])[*:2]; 3218 = (S)-2-cyclopentylhexanoic acid, CCCC[C@H](C(=O)*)C1CCCC1; Pro(trans-4-NH2) = O=C([C@@H]1C[C@@H](N[*:3])CN1[*:1])[*:2]; 785 = 2-phenethyl-benzoic acid, O=C(c1ccccc1CCc1ccccc1)*; Sni = (S)-nipecotic acid, O=C([C@H]1CCCN([*:1])C1)[*:2]; 6013 = (2-butoxy-ethoxy)-acetic acid, CCCCOCCOCC(=O)*; Phe(3-CF3) = N[C@@H](Cc1cccc(C(F)(F)F)c1)C(=O)O; Phe(2-CF3) = N[C@@H](Cc1ccccc1C(F)(F)F)C(=O)O; Propanoyl(3-cHex) = O=C(CCC1CCCCC1)*; Gly(NCH2CH2Ph) = O=C(O)CNCCc1ccccc1; Gly(cPent) = N[C@H](C(=O)O)C1CCCC1; Hydrocinnamoyl = O=C(CCc1ccccc1)*; Hyp = O=C(O)[C@@H]1C[C@@H](O)CN1; ES‑283‑049 = not defined here; NMeL = CN[C@@H](CC(C)C)C(=O)O; Chg = N[C@H](C(=O)O)C1CCCCC1; Decanoyl = CCCCCCCCCC(=O)*; Nle = CCCC[C@H](N)C(=O)O; Nphe = O=C(O)CNCc1ccccc1; Octanoyl = CCCCCCCC(=O)*; Thz = O=C(O)[C@@H]1CSCN1; Che = not defined here; leu = not defined here; Occ = octanoic acid
Target: T1, natriuretic peptide receptor-B (human)
T1 chain: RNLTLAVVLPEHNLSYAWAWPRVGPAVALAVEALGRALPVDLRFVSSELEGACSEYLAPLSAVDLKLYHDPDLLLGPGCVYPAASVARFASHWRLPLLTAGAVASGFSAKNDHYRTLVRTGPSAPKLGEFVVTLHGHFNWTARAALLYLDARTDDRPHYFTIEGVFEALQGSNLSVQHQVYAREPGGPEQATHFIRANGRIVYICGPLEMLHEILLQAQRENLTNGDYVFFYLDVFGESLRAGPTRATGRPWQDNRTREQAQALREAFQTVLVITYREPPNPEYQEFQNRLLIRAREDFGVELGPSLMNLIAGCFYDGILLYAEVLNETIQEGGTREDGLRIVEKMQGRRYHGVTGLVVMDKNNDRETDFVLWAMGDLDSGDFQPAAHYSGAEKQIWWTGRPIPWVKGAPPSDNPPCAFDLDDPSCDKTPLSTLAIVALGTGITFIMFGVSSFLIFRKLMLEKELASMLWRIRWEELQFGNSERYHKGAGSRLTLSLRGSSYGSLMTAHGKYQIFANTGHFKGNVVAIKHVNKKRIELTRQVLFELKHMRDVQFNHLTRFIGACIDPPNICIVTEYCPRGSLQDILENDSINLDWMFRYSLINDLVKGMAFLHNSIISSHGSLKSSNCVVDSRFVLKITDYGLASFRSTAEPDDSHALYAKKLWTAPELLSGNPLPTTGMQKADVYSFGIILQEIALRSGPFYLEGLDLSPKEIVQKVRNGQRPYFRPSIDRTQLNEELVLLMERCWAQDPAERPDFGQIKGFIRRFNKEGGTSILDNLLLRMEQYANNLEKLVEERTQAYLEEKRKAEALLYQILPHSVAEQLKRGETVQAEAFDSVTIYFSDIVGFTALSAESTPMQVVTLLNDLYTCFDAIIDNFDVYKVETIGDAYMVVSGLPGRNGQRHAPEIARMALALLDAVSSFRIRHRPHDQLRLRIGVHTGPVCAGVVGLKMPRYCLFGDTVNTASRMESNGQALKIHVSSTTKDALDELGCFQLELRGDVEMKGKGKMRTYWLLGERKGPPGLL
Assay: cell-based or functional assay

EC50 group, cGMP in GTM-3 cells: ≤ 1 µM
Binder: [Occ][Sni]F[ctb]L[Hyp][NMeL]DRI-NH2 [JAL-1623]

EC50 group, cGMP in GTM-3 cells: ≤ 5 µM
Binder: [Occ][Sni]F[leu]L[Hyp][NMeL]D[Eal][Che] (reading uncertain; also: printed as Occ-Sni-Phe-leu-Leu-Hyp-Nml-Asp-Eal-Che) [JAL-1639]

EC50 group, cGMP in GTM-3 cells: ≤ 1 µM
Binder: [Occ][Sni]F[leu]L[Hyp][NMeL]D[Thz][Che] (reading uncertain; also: printed as Occ-Sni-Phe-leu-Leu-Hyp-Nml-Asp-Eaz-Che) [JAL-1638]

EC50 group, cGMP in GTM-3 cells: ≤ 5 µM
Binder: Octanoyl-[dA][dA]FGLKLDRI-NH2 [JAL-0701]

EC50 group, cGMP in GTM-3 cells: ≤ 5 µM
Binder: [Occ][Sni]F[leu]L[Hyp][Chg]DRI-NH2 (reading uncertain; also: printed as Occ-Sni-Phe-leu-Leu-Hyp-Chg-Asp-Arg-Ile-NH2) [JAL-1627]

EC50 group, cGMP in GTM-3 cells: ≤ 1 µM
Binder: [Occ][Sni]F[leu]L[Hyp]IDRI-NH2 (reading uncertain; also: printed as Occ-Sni-Phe-leu-Leu-Hyp-Ile-Asp-Arg-Ile-NH2) [JAL-1625]

EC50 group, cGMP in GTM-3 cells: ≤ 1 µM
Binder: [Occ][Sni]F[leu][Nle][Hyp][NMeL]DP[Che] (reading uncertain; also: printed as Occ-Sni-Phe-leu-Nle-Hyp-Nml-Asp-Pro-Che) [JAL-1657]

EC50 group, cGMP in GTM-3 cells: ≤ 15 µM
Binder: [785][Sni]F[leu]L[Hyp][NMeL]DRI-NH2 (reading uncertain; also: printed as 785-Sni-Phe-leu-Leu-Hyp-Nml-Asp-Arg-Ile-NH2) [JAL-1660]

EC50 group, cGMP in GTM-3 cells: ≤ 15 µM
B1: JAL-1664 (peptide)
peptide: [3218][Sni]F[leu]L[Hyp][NMeL]DRI-NH2
modifications: reading uncertain; also: printed as 3218-Sni-Phe-leu-Leu-Hyp-Nml-Asp-Arg-Ile-NH2

EC50 group, cGMP in GTM-3 cells: ≤ 15 µM
B2: JAL-1668 (peptide)
peptide: XGXFLLXXDRI
HELM: PEPTIDE1{[O=C(CCc1ccccc1)[*:2]].G.[O=C([C@H]1CCCN([*:1])C1)[*:2]].F.[dL].L.[Hyp].[meL].D.R.I.[am]}$$$$V2.0
SMILES: CC[C@H](C)[C@H](NC(=O)[C@H](CCCNC(=N)N)NC(=O)[C@H](CC(=O)O)NC(=O)[C@H](CC(C)C)N(C)C(=O)[C@@H]1C[C@@H](O)CN1C(=O)[C@H](CC(C)C)NC(=O)[C@@H](CC(C)C)NC(=O)[C@H](Cc1ccccc1)NC(=O)[C@H]1CCCN(C(=O)CNC(=O)CCc2ccccc2)C1)C(N)=O

EC50 group, cGMP in GTM-3 cells: ≤ 1 µM
Binder: [Occ][Sni]F[leu]L[Pro(trans-4-NH2)][NMeL]VP[Che] (reading uncertain; also: printed as Occ-Sni-Phe-leu-Leu-Tap-Nml-Val-Pro-Che) [JAL-1654]

EC50 group, cGMP in GTM-3 cells: ≤ 1 µM
Binder: [Occ][Sni]F[leu]L[Hyp][Gly(cPent)]DRI-NH2 (reading uncertain; also: printed as Occ-Sni-Phe-leu-Leu-Hyp-Cpg-Asp-Arg-Ile-NH2) [JAL-1626]

EC50 group, cGMP in GTM-3 cells: ≤ 5 µM
Binder: [Occ][aFL][leu]L[Hyp][NMeL]DRI-NH2 (reading uncertain; also: printed as Occ-(aFL)-leu-Leu-Hyp-Nml-Asp-Arg-Ile-NH2) [JAL-1636]

EC50 group, cGMP in GTM-3 cells: ≤ 5 µM
B3: JAL-0697 (peptide)
peptide: XXFGLKLDRI
HELM: PEPTIDE1{[CCCCCCCC(=O)[*:2]].[O=C(C1CCCN([*:1])C1)[*:2]].F.G.L.K.L.D.R.I.[am]}$$$$V2.0
SMILES: CCCCCCCC(=O)N1CCCC(C(=O)N[C@@H](Cc2ccccc2)C(=O)NCC(=O)N[C@@H](CC(C)C)C(=O)N[C@@H](CCCCN)C(=O)N[C@@H](CC(C)C)C(=O)N[C@@H](CC(=O)O)C(=O)N[C@@H](CCCNC(=N)N)C(=O)N[C@H](C(N)=O)[C@@H](C)CC)C1

EC50 group, cGMP in GTM-3 cells: ≤ 15 µM
B4: JAL-1635 (peptide)
peptide: [Occ][Sni][Gly(NCH2CH2Ph)][leu]L[Hyp][NMeL]DRI-NH2
modifications: reading uncertain; also: printed as Occ-Sni-NHfe-leu-Leu-Hyp-Nml-Asp-Arg-Ile-NH2

EC50 group, cGMP in GTM-3 cells: ≤ 5 µM
Binder: [Occ][Sni]F[leu]L[Hyp][NMeL]EP[Che] (reading uncertain; also: printed as Occ-Sni-Phe-leu-Leu-Hyp-Nml-Glu-Pro-Che) [JAL-1652]

EC50 group, cGMP in GTM-3 cells: ≤ 15 µM
Binder: [Occ][Sni][Phe(2-CF3)][leu]L[Hyp][NMeL]DRI-NH2 (reading uncertain; also: printed as Occ-Sni-Otf-leu-Leu-Hyp-Nml-Asp-Arg-Ile-NH2) [JAL-1622]

EC50 group, cGMP in GTM-3 cells: ≤ 5 µM
Binder: [Occ][afL][leu]L[Hyp][NMeL]DRI-NH2 (reading uncertain; also: printed as Occ-(afL)-leu-Leu-Hyp-Nml-Asp-Arg-Ile-NH2) [JAL-1637]

EC50 group, cGMP in GTM-3 cells: ≤ 5 µM
B5: JAL-1646 (peptide)
peptide: [Occ][Sni]F[leu]L[Hyp][NMeL]D[ES‑283‑049]
modifications: reading uncertain; also: printed as Occ-Sni-Phe-leu-Leu-Hyp-Nml-Asp-(ES-283-049)

EC50 group, cGMP in GTM-3 cells: ≤ 5 µM
Binder: [779][Sni]F[leu]L[Hyp][NMeL]DRI-NH2 (reading uncertain; also: printed as 779-Sni-Phe-leu-Leu-Hyp-Nml-Asp-Arg-Ile-NH2) [JAL-1659]

EC50 group, cGMP in GTM-3 cells: ≤ 1 µM
Binder: [Occ][Sni][Phe(3-CF3)][leu]L[Hyp][NMeL]DRI-NH2 (reading uncertain; also: printed as Occ-Sni-Mtf-leu-Leu-Hyp-Nml-Asp-Arg-Ile-NH2) [JAL-1621]

EC50 group, cGMP in GTM-3 cells: ≤ 5 µM
B6: JAL-1661 (peptide)
peptide: [Hydrocinnamoyl][Sni]F[leu]L[Hyp][NMeL]DRI-NH2
modifications: reading uncertain; also: printed as 1281-Sni-Phe-leu-Leu-Hyp-Nml-Asp-Arg-Ile-NH2

EC50 group, cGMP in GTM-3 cells: ≤ 15 µM
Binder: {Propanoyl(3-cHex)}-[dA][dA]FGLKLDRI-NH2 [JAL-0703]

EC50 group, cGMP in GTM-3 cells: ≤ 1 µM
Binder: [Occ][Sni]F[leu][Nle][Hyp][NMeL]DRI-NH2 (reading uncertain; also: printed as Occ-Sni-Phe-leu-Nle-Hyp-Nml-Asp-Arg-Ile-NH2) [JAL-1624]

EC50 group, cGMP in GTM-3 cells: ≤ 15 µM
B7: JAL-1634 (peptide)
peptide: [Occ][Sni][Nphe][leu]L[Hyp][NMeL]DRI-NH2
modifications: reading uncertain; also: printed as Occ-Sni-NPhe-leu-Leu-Hyp-Nml-Asp-Arg-Ile-NH2

EC50 group, cGMP in GTM-3 cells: ≤ 5 µM
B8: JAL-1665 (peptide)
peptide: [6013][Sni]F[leu]L[Hyp][NMeL]DRI-NH2
modifications: reading uncertain; also: printed as 6013-Sni-Phe-leu-Leu-Hyp-Nml-Asp-Arg-Ile-NH2

EC50 group, cGMP in GTM-3 cells: ≤ 1 µM
B9: JAL-1666 (peptide)
peptide: [Decanoyl][Sni]F[leu]L[Hyp][NMeL]DRI-NH2
modifications: reading uncertain; also: printed as 5587-Sni-Phe-leu-Leu-Hyp-Nml-Asp-Arg-Ile-NH2

Reference: patent publication US9187525B2, “Methods of treating ophthalmic diseases using NPR-B agonists” (Shire Orphan Therapies GmbH, dated 2015)
